From publication PMC4298360 (2015)

Tests used:
[1] = target: T1, IgG-IL-2 (monovalent fusion of wild-type human IL-2 to a non-targeted, effector-silent human IgG1) (human, UniProt P60568 21-153); assay: SPR; steady state
[2] = target: T2, IgG-(IL-2)2 (bivalent fusion of two wild-type human IL-2 to a non-targeted, effector-silent human IgG1) (human, UniProt P60568 21-153); assay: SPR; steady state
[3] = target: T1, IgG-IL-2 (monovalent fusion of …); assay: SPR
[4] = target: T2, IgG-(IL-2)2 (bivalent fusion of two …); assay: SPR

| Binder | Kd [1] [nM] | Kd [2] [nM] | koff [3] [s⁻¹] | koff [4] [s⁻¹] |
| --- | --- | --- | --- | --- |
| murine IL-2Rα, monomeric, his-tagged (receptor) ELCLYDPPEVPNATFKALSYKNGTILNCECKRGFRRLKELVYMRCLGNSWSSNCQCTSNSHDKSRKQVTAQLEHQKEQQTTTDMQKPTQSMHQENLTGHCREPPPWKHEDSKRIYHFVEGQSVHYECIPGYKALQRGPAISICKMKCGKTGWTQPQLTCVDEREHHRFLASEESQGSRNSSPESETSCPITTTDFPQPTETTAMTETFVLTMEYKVAVASCLFLLISILLLSGLTWQHRWRKSRRTI | 110 | 30 | – | – |
| cynomolgus IL-2Rα, monomeric, his-tagged (receptor) ELCDDDPPKITHATFKAVAYKEGTMLNCECKRGFRRIKSGSPYMLCTGNSSHSSWDNQCQCTSSAARNTTKQVTPQPEEQKERKTTEMQSQMQLADQVSLPGHCREPPPWENEATERIYHFVVGQTVYYQCVQGYRALHRGPAESVCKMTHGKTRWTQPQLICTGETEPSQFPGEEEPQASPDGLPESETSRLVTTTDFRIQTEVAATMETFIFTTEYQ | 30 | 15 | – | – |
| human IL-2Rβγ heterodimeric Fc fusion (knobs-into-holes), biotinylated (Fc fusion) chain 1: AVNGTSQFTCFYNSRANISCVWSQDGALQDTSCQVHAWPDRRRWNQTCELLPVSQASWACNLILGAPDSQKLTTVDIVTLRVLCREGVRWRVMAIQDFKPFENLRLMAPISLQVVHVETHRCNISWEISQASHYFERHLEFEARTLSPGHTWEEAPLLTLKQKQEWICLETLTPDTQYEFQVRVKPLQGEFTTWSPWSQPLAFRTKPAALGKDT chain 2: LNTTILTPNGNEDTTADFFLTTMPTDSLSVSTLPLPEVQCFVFNVEYMNCTWNSSSEPQPTNLTLHYWYKNSDNDKVQKCSHYLFSEEITSGCQLQKKEIHLYQTFVVQLQDPREPRRQATQMLKLQNLVIPWAPENLTLHKLSESQLELNWNNRFLNHCLEHLVQYRTDWDHSWTEQSVDYRHKFSLPSVDGQKRYTFRVRSRFNPLCGSAQHWSEWSHPIHWGSNTSKENPFLFALEA | – | – | 3.8e-05 | 8.1e-06 |
| cynomolgus IL-2Rβγ heterodimeric Fc fusion (knobs-into-holes), biotinylated (Fc fusion) chain 1: AVNGTSRFTCFYNSRANISCVWSQDGALQDTSCQVHAWPDRRRWNQTCELLPVSQASWACNLILGTPDSQKLTAVDIVTLRVMCREGVRWRMMAIQDFKPFENLRLMAPISLQVVHVETHRCNISWKISQASHYFERHLEFEARTLSPGHTWEEAPLMTLKQKQEWICLETLTPDTQYEFQVRVKPLQGEFTTWSPWSQPLAFRTKPAALGKDT chain 2: LNTTILTPNGNEDATTDFFLTSMPTDSLSVSTLPLPEVQCFVFNVEYMNCTWNSSSEPQPTNLTLHYWYKNSDNDKVQKCSHYLFSEEITSGCQLQKKEIHLYQTFVVQLQDPREPRRQATQMLKLQNLVIPWAPENLTLRKLSESQLELNWNNRFLNHCLEHLVQYRTDWDHSWTEQSVDYRHKFSLPSVDGQKRYTFRVRSRFNPLCGSAQHWSEWSHPIHWGSNSSKENPFLFALEA | – | – | 0.00011 | 5.3e-05 |
| murine IL-2Rβγ heterodimeric Fc fusion (knobs-into-holes), biotinylated (Fc fusion) chain 1: AVKNCSHLECFYNSRANVSCMWSHEEALNVTTCHVHAKSNLRHWNKTCELTLVRQASWACNLILGSFPESQSLTSVDLLDINVVCWEEKGWRRVKTCDFHPFDNLRLVAPHSLQVLHIDTQRCNISWKVSQVSHYIEPYLEFEARRRLLGHSWEDASVLSLKQRQQWLFLEMLIPSTSYEVQVRVKAQRNNTGTWSPWSQPLTFRTRPADPMKE chain 2: WSSKVLMSSANEDIKADLILTSTAPEHLSAPTLPLPEVQCFVFNIEYMNCTWNSSSEPQATNLTLHYRYKVSDNNTFQECSHYLFSKEITSGCQIQKEDIQLYQTFVVQLQDPQKPQRRAVQKLNLQNLVIPRAPENLTLSNLSESQLELRWKSRHIKERCLQYLVQYRSNRDRSWTELIVNHEPRFSLPSVDELKRYTFRVRSRYNPICGSSQQWSKWSQPVHWGSHTVEENPSLFALEA | – | – | 0.00065 | 9.3e-05 |
| human IL-2Rα, monomeric, his-tagged (receptor) ELCDDDPPEIPHATFKAMAYKEGTMLNCECKRGFRRIKSGSLYMLCTGNSSHSSWDNQCQCTSSATRNTTKQVTPQPEEQKERKTTEMQSPMQPVDQASLPGHCREPPPWENEATERIYHFVVGQMVYYQCVQGYRALHRGPAESVCKMTHGKTRWTQPQLICTGEMETSQFPGEEKPQASPEGRPESETSCLVTTTDFQIQTEMAATMETSIFTTEYQVAVAGCVFLLISVLLLSGLTWQRRQRKSRRTI | 15 | 5 | – | – |
